Measured values published in paper PMC9482650, “Quantitative fragmentomics allow affinity mapping of interactomes” (Nature Communications, 2022).

Key:
Test in all cases: holdup assay
Design in all cases: key: below the threshold = too weak to quantify, mostly under pKd 3.1 to 4
LNX1_3, Q8TBB1 = biological target: LNX1_3, Q8TBB1
GRID2IP_2, A4D2P6 = biological target: GRID2IP_2, A4D2P6
FRMPD3, Q5JV73 = biological target: FRMPD3, Q5JV73
LIN7C, Q9NUP9 = biological target: T1, LIN7C, Q9NUP9
T1 sequence (Q9NUP9 88-185, limits assumed, looked up): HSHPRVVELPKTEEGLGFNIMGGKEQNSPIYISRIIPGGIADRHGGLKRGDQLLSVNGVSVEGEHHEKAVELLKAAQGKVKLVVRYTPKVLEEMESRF

NHERF2_2, Q15599 = biological target: NHERF2_2, Q15599
RHPN1, Q8TCX5 = biological target: T2, RHPN1, Q8TCX5
T2 sequence (Q8TCX5 508-602, limits assumed, looked up): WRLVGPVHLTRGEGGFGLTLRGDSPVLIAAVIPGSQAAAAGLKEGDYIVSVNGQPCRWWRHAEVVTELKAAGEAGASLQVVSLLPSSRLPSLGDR

SIPA1L2, Q9P2F8 = biological target: T3, SIPA1L2, Q9P2F8
T3 sequence (Q9P2F8 945-1036, limits assumed, looked up): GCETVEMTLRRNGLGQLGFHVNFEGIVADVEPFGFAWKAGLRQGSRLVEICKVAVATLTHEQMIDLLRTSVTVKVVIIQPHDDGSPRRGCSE

GRIP2_4, Q9C0E4 = biological target: GRIP2_4, Q9C0E4
PARD3B_1, Q8TEW8 = biological target: T4, PARD3B_1, Q8TEW8
T4 sequence (Q8TEW8 196-299, limits assumed, looked up): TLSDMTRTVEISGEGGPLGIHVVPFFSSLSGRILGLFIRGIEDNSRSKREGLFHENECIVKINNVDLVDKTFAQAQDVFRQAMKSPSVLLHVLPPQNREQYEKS

MPDZ_12, O75970 = biological target: T5, MPDZ_12, O75970
T5 sequence (O75970 1857-1958, limits assumed, looked up): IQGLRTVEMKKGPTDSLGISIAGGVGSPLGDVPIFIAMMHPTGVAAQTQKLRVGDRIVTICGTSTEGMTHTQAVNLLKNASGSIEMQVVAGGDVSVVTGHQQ

Inadl_1, Q8NI35 = biological target: Inadl_1, Q8NI35
GRIP1_4, Q9Y3R0 = biological target: T6, GRIP1_4, Q9Y3R0
T6 sequence (Q9Y3R0 467-571, limits assumed, looked up): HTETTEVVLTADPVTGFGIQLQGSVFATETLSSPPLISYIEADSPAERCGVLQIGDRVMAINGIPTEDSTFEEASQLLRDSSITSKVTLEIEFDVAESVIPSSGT

LDB3, O75112 = biological target: LDB3, O75112
GORASP1, Q9BQQ3 = biological target: GORASP1, Q9BQQ3
Inadl_6, Q8NI35 = biological target: Inadl_6, Q8NI35
SCRIB_3, Q14160 = biological target: SCRIB_3, Q14160
MAGI2_6, Q86UL8 = biological target: MAGI2_6, Q86UL8
Inadl_2, Q8NI35 = biological target: Inadl_2, Q8NI35
NHERF4_1, Q86UT5-2 = biological target: NHERF4_1, Q86UT5-2
NHERF4_4, Q86UT5 = biological target: NHERF4_4, Q86UT5
SNX27, Q96L92 = biological target: SNX27, Q96L92
SHANK1, Q9Y566 = biological target: T7, SHANK1, Q9Y566
T7 sequence (Q9Y566 658-767, limits assumed, looked up): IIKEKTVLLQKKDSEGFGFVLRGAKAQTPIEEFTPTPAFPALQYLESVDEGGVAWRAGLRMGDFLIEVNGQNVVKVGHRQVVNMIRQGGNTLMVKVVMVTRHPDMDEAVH

ARHGEF12, Q9NZN5-2 = biological target: ARHGEF12, Q9NZN5-2
FRMPD2_1, Q68DX3 = biological target: FRMPD2_1, Q68DX3
MAGI2_2, Q86UL8 = biological target: MAGI2_2, Q86UL8
DLG3_3, Q92796 = biological target: T8, DLG3_3, Q92796
T8 sequence (Q92796 374-475, limits assumed, looked up): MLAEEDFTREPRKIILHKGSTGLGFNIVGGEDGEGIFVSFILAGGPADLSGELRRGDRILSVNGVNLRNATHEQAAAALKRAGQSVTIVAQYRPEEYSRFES

DLG1_2, Q12959 = biological target: DLG1_2, Q12959
HTRA2, O43464 = biological target: HTRA2, O43464
PTPN3, P26045 = biological target: PTPN3, P26045
[1] = plain residues with an end cap or a label only (N-terminal biotin on a linker: ado-ado)
[2] = plain residues with an end cap or a label only (N-terminal biotin on a linker: (peg)3)

ARHGEF12, Q9NZN5-2, sequence (Q9NZN5 other isoform, or with tags, fused parts or gaps): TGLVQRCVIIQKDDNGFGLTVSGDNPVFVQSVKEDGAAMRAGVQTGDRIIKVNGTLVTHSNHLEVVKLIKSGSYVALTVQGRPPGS
NHERF2_2, Q15599, sequence (Q15599 142-238): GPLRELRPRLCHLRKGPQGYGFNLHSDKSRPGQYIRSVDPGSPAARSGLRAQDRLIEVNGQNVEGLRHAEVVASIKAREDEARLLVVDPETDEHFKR
FRMPD2_1, Q68DX3, sequence (Q68DX3 770-861): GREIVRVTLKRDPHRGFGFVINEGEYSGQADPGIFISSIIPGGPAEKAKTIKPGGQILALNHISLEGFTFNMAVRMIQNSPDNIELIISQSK
GRIP2_4, Q9C0E4, sequence (Q9C0E4 446-548): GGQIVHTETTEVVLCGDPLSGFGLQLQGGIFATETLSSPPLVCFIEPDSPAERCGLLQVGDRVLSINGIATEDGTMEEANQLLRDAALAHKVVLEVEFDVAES
MAGI2_6, Q86UL8, sequence (Q86UL8 1141-1229): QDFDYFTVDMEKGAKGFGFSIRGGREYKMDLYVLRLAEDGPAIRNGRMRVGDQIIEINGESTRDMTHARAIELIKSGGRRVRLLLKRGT
NHERF4_1, Q86UT5-2, sequence (Q86UT5 other isoform, or with tags, fused parts or gaps): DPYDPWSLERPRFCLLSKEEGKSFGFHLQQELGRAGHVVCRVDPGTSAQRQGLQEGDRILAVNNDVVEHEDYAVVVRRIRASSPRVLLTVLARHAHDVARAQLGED
Inadl_6, Q8NI35, sequence (Q8NI35 1058-1167): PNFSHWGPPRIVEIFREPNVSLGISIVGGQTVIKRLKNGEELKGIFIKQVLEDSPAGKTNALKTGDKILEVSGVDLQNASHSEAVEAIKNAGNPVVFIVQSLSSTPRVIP
FRMPD3, Q5JV73, sequence (Q5JV73 12-100): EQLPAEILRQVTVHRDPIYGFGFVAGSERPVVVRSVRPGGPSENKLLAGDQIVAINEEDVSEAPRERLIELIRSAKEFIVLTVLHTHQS
LDB3, O75112, sequence (O75112 1-94): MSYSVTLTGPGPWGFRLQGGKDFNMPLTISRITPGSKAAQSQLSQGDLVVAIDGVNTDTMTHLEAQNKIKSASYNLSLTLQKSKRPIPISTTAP
GRID2IP_2, A4D2P6, sequence (A4D2P6 272-370): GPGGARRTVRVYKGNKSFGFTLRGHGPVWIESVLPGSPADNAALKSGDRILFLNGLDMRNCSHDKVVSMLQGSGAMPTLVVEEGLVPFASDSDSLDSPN
GORASP1, Q9BQQ3, sequence (Q9BQQ3 1-208): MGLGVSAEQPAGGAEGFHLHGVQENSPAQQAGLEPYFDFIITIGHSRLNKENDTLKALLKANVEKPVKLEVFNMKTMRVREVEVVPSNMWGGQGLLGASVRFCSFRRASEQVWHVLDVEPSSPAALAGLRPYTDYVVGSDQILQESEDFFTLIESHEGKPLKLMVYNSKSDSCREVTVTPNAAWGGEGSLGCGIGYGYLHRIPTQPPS
PTPN3, P26045, sequence (P26045 505-587): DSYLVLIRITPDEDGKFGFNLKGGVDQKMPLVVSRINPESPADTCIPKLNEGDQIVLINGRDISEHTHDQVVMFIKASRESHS
SCRIB_3, Q14160, sequence (Q14160 999-1103): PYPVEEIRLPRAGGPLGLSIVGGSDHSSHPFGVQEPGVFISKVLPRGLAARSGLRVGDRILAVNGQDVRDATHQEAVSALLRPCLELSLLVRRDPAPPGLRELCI
LNX1_3, Q8TBB1, sequence (Q8TBB1 500-596): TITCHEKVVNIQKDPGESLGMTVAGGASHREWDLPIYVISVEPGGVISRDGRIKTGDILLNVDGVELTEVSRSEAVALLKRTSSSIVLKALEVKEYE
MAGI2_2, Q86UL8, sequence (Q86UL8 410-522): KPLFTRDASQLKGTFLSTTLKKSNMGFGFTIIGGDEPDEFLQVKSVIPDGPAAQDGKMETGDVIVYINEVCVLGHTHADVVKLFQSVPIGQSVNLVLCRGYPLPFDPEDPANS
HTRA2, O43464, sequence (O43464 355-458): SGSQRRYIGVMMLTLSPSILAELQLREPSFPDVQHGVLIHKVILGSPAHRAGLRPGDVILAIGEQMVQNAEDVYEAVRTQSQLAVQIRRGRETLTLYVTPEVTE
Inadl_1, Q8NI35, sequence (Q8NI35 113-229): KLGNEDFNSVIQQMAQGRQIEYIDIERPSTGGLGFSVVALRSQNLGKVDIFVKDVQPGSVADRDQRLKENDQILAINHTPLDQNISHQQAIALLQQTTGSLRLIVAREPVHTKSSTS
Inadl_2, Q8NI35, sequence (Q8NI35 238-335): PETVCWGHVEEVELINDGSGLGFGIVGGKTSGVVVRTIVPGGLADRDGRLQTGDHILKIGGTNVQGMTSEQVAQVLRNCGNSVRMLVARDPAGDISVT
DLG1_2, Q12959, sequence (Q12959 314-412): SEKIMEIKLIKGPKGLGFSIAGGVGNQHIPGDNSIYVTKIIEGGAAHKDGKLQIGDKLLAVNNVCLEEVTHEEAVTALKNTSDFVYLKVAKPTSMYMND
NHERF4_4, Q86UT5, sequence (Q86UT5 464-550): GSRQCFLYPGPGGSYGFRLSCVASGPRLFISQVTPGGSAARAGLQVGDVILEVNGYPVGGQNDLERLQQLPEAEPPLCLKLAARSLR

KSGKQTMLVV [TRIM29, Q14134;Q14134-2]
pKd (LNX1_3, Q8TBB1; [1]): below the threshold | pKd (GRID2IP_2, A4D2P6; [1]): below the threshold | pKd (FRMPD3, Q5JV73; [1]): below the threshold | pKd (LIN7C, Q9NUP9; [1]): below the threshold | pKd (NHERF2_2, Q15599; [1]): below the threshold | pKd (RHPN1, Q8TCX5; [1]): below the threshold | pKd (SIPA1L2, Q9P2F8; [1]): below the threshold | pKd (GRIP2_4, Q9C0E4; [1]): below the threshold | pKd (PARD3B_1, Q8TEW8; [1]): below the threshold | pKd (MPDZ_12, O75970; [1]): below the threshold | pKd (Inadl_1, Q8NI35; [1]): below the threshold | pKd (GRIP1_4, Q9Y3R0; [1]): below the threshold | pKd (LDB3, O75112; [1]): below the threshold | pKd (GORASP1, Q9BQQ3; [1]): 4.34 | pKd (Inadl_6, Q8NI35; [1]): below the threshold | pKd (SCRIB_3, Q14160; [1]): below the threshold | pKd (MAGI2_6, Q86UL8; [1]): below the threshold | pKd (Inadl_2, Q8NI35; [1]): below the threshold

VYPNAKVELV [PDLIM4_iso2, P50479;P50479-1]
pKd (LNX1_3, Q8TBB1; [1]): below the threshold | pKd (NHERF4_1, Q86UT5-2; [1]): 3.98 | pKd (NHERF4_4, Q86UT5; [1]): below the threshold | pKd (GRID2IP_2, A4D2P6; [1]): below the threshold | pKd (FRMPD3, Q5JV73; [1]): below the threshold | pKd (LIN7C, Q9NUP9; [1]): below the threshold | pKd (SNX27, Q96L92; [1]): below the threshold | pKd (SHANK1, Q9Y566; [1]): below the threshold | pKd (NHERF2_2, Q15599; [1]): below the threshold | pKd (RHPN1, Q8TCX5; [1]): below the threshold | pKd (SIPA1L2, Q9P2F8; [1]): below the threshold | pKd (GRIP2_4, Q9C0E4; [1]): below the threshold | pKd (ARHGEF12, Q9NZN5-2; [1]): below the threshold | pKd (FRMPD2_1, Q68DX3; [1]): below the threshold | pKd (MPDZ_12, O75970; [1]): below the threshold | pKd (MAGI2_2, Q86UL8; [1]): below the threshold | pKd (Inadl_1, Q8NI35; [1]): below the threshold | pKd (GRIP1_4, Q9Y3R0; [1]): below the threshold | pKd (DLG3_3, Q92796; [1]): below the threshold | pKd (LDB3, O75112; [1]): below the threshold | pKd (DLG1_2, Q12959; [1]): below the threshold | pKd (GORASP1, Q9BQQ3; [1]): 4.48 | pKd (Inadl_6, Q8NI35; [1]): below the threshold | pKd (SCRIB_3, Q14160; [1]): below the threshold | pKd (MAGI2_6, Q86UL8; [1]): below the threshold | pKd (Inadl_2, Q8NI35; [1]): below the threshold

YLEPVLSSEL [ATP2A2, P16615;P16615-3]
pKd (LNX1_3, Q8TBB1; [1]): below the threshold | pKd (NHERF4_1, Q86UT5-2; [1]): 4.39 | pKd (NHERF4_4, Q86UT5; [1]): below the threshold | pKd (GRID2IP_2, A4D2P6; [1]): 4.22 | pKd (FRMPD3, Q5JV73; [1]): below the threshold | pKd (SNX27, Q96L92; [1]): 4.12 | pKd (SHANK1, Q9Y566; [1]): 4.67 | pKd (NHERF2_2, Q15599; [1]): 4.46 | pKd (RHPN1, Q8TCX5; [1]): 4.24 | pKd (SIPA1L2, Q9P2F8; [1]): below the threshold | pKd (GRIP2_4, Q9C0E4; [1]): below the threshold | pKd (ARHGEF12, Q9NZN5-2; [1]): 5.38 | pKd (PARD3B_1, Q8TEW8; [1]): 4.04 | pKd (FRMPD2_1, Q68DX3; [1]): below the threshold | pKd (MAGI2_2, Q86UL8; [1]): below the threshold | pKd (HTRA2, O43464; [1]): below the threshold | pKd (Inadl_1, Q8NI35; [1]): below the threshold | pKd (GRIP1_4, Q9Y3R0; [1]): below the threshold | pKd (DLG3_3, Q92796; [1]): below the threshold | pKd (LDB3, O75112; [1]): below the threshold | pKd (DLG1_2, Q12959; [1]): below the threshold | pKd (GORASP1, Q9BQQ3; [1]): below the threshold | pKd (Inadl_6, Q8NI35; [1]): below the threshold | pKd (PTPN3, P26045; [1]): 4.93 | pKd (SCRIB_3, Q14160; [1]): 4.51 | pKd (MAGI2_6, Q86UL8; [1]): 3.91 | pKd (Inadl_2, Q8NI35; [1]): below the threshold

NLNSSEGVPDLLV [SARS-CoV-E, P59637]
pKd (LNX1_3, Q8TBB1; [2]): below the threshold | pKd (NHERF4_1, Q86UT5-2; [2]): below the threshold | pKd (NHERF4_4, Q86UT5; [2]): below the threshold | pKd (GRID2IP_2, A4D2P6; [2]): below the threshold | pKd (FRMPD3, Q5JV73; [2]): below the threshold | pKd (LIN7C, Q9NUP9; [2]): below the threshold | pKd (SNX27, Q96L92; [2]): below the threshold | pKd (SHANK1, Q9Y566; [2]): below the threshold | pKd (NHERF2_2, Q15599; [2]): below the threshold | pKd (RHPN1, Q8TCX5; [2]): below the threshold | pKd (SIPA1L2, Q9P2F8; [2]): below the threshold | pKd (GRIP2_4, Q9C0E4; [2]): below the threshold | pKd (ARHGEF12, Q9NZN5-2; [2]): below the threshold | pKd (PARD3B_1, Q8TEW8; [2]): below the threshold | pKd (FRMPD2_1, Q68DX3; [2]): below the threshold | pKd (MPDZ_12, O75970; [2]): below the threshold | pKd (MAGI2_2, Q86UL8; [2]): below the threshold | pKd (HTRA2, O43464; [2]): below the threshold | pKd (Inadl_1, Q8NI35; [2]): below the threshold | pKd (GRIP1_4, Q9Y3R0; [2]): below the threshold | pKd (DLG3_3, Q92796; [2]): below the threshold | pKd (LDB3, O75112; [2]): below the threshold | pKd (DLG1_2, Q12959; [2]): below the threshold | pKd (GORASP1, Q9BQQ3; [2]): below the threshold | pKd (Inadl_6, Q8NI35; [2]): below the threshold | pKd (PTPN3, P26045; [2]): below the threshold | pKd (SCRIB_3, Q14160; [2]): below the threshold | pKd (MAGI2_6, Q86UL8; [2]): below the threshold | pKd (Inadl_2, Q8NI35; [2]): below the threshold

LPAHHNATRL [SLC34A1, Q06495;Q06495-1]
pKd (LNX1_3, Q8TBB1; [1]): below the threshold | pKd (NHERF4_1, Q86UT5-2; [1]): 4.01 | pKd (NHERF4_4, Q86UT5; [1]): below the threshold | pKd (GRID2IP_2, A4D2P6; [1]): 4.13 | pKd (FRMPD3, Q5JV73; [1]): below the threshold | pKd (LIN7C, Q9NUP9; [1]): below the threshold | pKd (SNX27, Q96L92; [1]): 4.19 | pKd (SHANK1, Q9Y566; [1]): 5.39 | pKd (NHERF2_2, Q15599; [1]): 4.83 | pKd (SIPA1L2, Q9P2F8; [1]): below the threshold | pKd (GRIP2_4, Q9C0E4; [1]): below the threshold | pKd (ARHGEF12, Q9NZN5-2; [1]): 4.44 | pKd (PARD3B_1, Q8TEW8; [1]): 4.62 | pKd (FRMPD2_1, Q68DX3; [1]): below the threshold | pKd (MPDZ_12, O75970; [1]): below the threshold | pKd (HTRA2, O43464; [1]): below the threshold | pKd (Inadl_1, Q8NI35; [1]): below the threshold | pKd (GRIP1_4, Q9Y3R0; [1]): below the threshold | pKd (DLG3_3, Q92796; [1]): below the threshold | pKd (LDB3, O75112; [1]): below the threshold | pKd (DLG1_2, Q12959; [1]): below the threshold | pKd (GORASP1, Q9BQQ3; [1]): below the threshold | pKd (Inadl_6, Q8NI35; [1]): below the threshold | pKd (PTPN3, P26045; [1]): 4 | pKd (SCRIB_3, Q14160; [1]): 4.02 | pKd (MAGI2_6, Q86UL8; [1]): below the threshold | pKd (Inadl_2, Q8NI35; [1]): below the threshold
